Experimental data taken from IntAct's records for PubMed 24140345.

B1: Serine/threonine-protein kinase RIM15 (Saccharomyces cerevisiae), P43565 (parent)
chain: MFNRSNTAGGSQAMKEGLGINKLSPISSNSNPSSLTSSNYEKYLQLATEKNPCMILELELDGKVRYGSPQWNTITGVADDSGSSPTYIADLILGSDQDKGVFQKATDMLLMNDDTSCTITFKIKAADYEGSAGCDDESTITTLEARGILIRDGHTQLPSHTMWIVKPRTNDWSDFYANEDAQDDMVIQLSDNCDDIDIQLPEEFAKTLGFGAKIFVQYLKRIRLEMIIDEFNLPLPKMELCRVCENFVPVWWLETHSQSCVCEHRTESLIQLLHDNLLEQQAILANFTKDSEYKGSQIQVRSNNFLNQVLDSLRELCQDAIDINPSEMVPDLYHSLSTFPQDNGNNNNNNNNNNNNNNALLDQFPIQKDTVSLNSYFQFSPRTNHNIQNVTSWQSRFFLNDDQDPGLALLIHDTLDLARKKVDAVLRLDNAMTYSLKIKNEVNNYVVQLIREQIEINKHAILTHPMNLRSSSIFHSPLPQIHSQQPEAENLIYSSSTPLQVQHDQCASFEAPSKSHLEPIPFPVSSIEETPTANDIRHPSPLPRSCSNTVMKLPTPRRKLDSNGLFSDAYLNADIIPNPSIESTISIDRDNNTNSRGSSMKQYGIGEATDSRTSNSERPSSSSSRLGIRSRSITPRQKIEYSHVDNDDRTNEMLSRDKDSLQPQPSVDTTITSSTQATTTGTKTNSNNSTNSVLPKLMTSISLTPRRGSPSFGNLASHSMQQTNSFKLIHDKSPISSPFTFSKDFLTPEQHPSNIARTDSINNAMLTSPNMPLSPLLLATNQTVKSPTPSIKDYDILKPISKGAYGSVYLARKKLTGDYFAIKVLRKSDMIAKNQVTNVKSERAIMMVQSDKPYVARLFASFQNKDNLFLVMEYLPGGDLATLIKMMGYLPDQWAKQYLTEIVVGVNDMHQNGIIHHDLKPENLLIDNAGHVKLTDFGLSRAGLIRRHKFVPHKSSLSISSTLPIDNPANNFTMNNNNSNHSQLSTPDSFTSDHKQYNRSKKSSLGQQYEHSEYSSTSNSHSMTPTPSTNTVVYPSYYRGKDRSHGSSNIDLPASLRRSESQLSFSLLDISRSSTPPLANPTNSNANNIMRRKSLTENKSFSNDLLSSDAIAATNTNINSNNNISLSPAPSDLALFYPDDSKQNKKFFGTPDYLAPETIEGKGEDNKQCDWWSVGCIFFELLLGYPPFHAETPDAVFKKILSGVIQWPEFKNEEEEREFLTPEAKDLIEKLLVVDPAKRLGAKGIQEIKDHPYFKNVDWDHVYDEEASFVPTIDNPEDTDYFDLRGAELQDFGDDIENDNANILFGKHGINTDVSELSAANLSPPLNHKNILSRKLSMSNTTNRSSNNSNSSVHDFGAHTPVNKLSIASVLESVPQETGYITPNGTGTTTTSAKNSPNLKNLSLAIPPHMRDRRSSKLNDSQTEFGSFNFRNLSALDKANKDAINRLKSEHFSEQPGVHRRTSSASLMGSSSDGSVSTPGSNASNTTSGGKLKIHKPTISGSPSTFGTFPKTFLRSDSFSTRSYSPERSISIDSSTLSRKGSIIGDNQQTTANSSDSPTMTKFKSPLSPANTTTVSSYFSRQRVLSKSFSQRTNSSDLSAEESDRLQAISRVNSLRNRRRSGRKSSSTSEIGYHMDVLVCEPIPIHRYRVTKDLENLGCTVVSVGAGDELVSRATSGVSFDLIMTALKLPKLGAIDIVQLLKQTNGANSTTPIVAITNYFQEAATSRVFDDVLEKPVKLDELKKLVAKYALKKSQEDEEHTILSDSDETH
partner: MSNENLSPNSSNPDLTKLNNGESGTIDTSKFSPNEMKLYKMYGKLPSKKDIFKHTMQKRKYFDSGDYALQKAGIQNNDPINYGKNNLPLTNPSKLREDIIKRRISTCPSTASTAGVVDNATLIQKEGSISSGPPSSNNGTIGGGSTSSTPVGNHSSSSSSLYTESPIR
B2: Serine/threonine-protein kinase RIM15 (Saccharomyces cerevisiae), P43565 (parent)
chain: B1 chain
partner: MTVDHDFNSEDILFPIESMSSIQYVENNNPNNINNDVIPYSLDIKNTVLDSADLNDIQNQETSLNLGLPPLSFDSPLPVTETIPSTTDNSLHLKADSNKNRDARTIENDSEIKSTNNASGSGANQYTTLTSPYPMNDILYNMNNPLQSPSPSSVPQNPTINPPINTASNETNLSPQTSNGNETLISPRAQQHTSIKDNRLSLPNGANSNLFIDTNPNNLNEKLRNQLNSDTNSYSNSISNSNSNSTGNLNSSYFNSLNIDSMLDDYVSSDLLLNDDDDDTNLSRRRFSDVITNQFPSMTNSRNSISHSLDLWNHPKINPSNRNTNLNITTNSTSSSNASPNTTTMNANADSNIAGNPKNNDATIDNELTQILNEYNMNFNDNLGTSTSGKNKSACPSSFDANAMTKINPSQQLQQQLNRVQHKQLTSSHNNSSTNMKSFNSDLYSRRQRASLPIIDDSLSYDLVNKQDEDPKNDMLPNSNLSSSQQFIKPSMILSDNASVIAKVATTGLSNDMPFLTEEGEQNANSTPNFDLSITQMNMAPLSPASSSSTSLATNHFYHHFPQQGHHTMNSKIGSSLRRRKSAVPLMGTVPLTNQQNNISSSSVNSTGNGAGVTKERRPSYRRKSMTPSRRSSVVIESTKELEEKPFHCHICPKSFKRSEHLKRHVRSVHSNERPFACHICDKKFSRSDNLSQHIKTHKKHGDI
B3: Serine/threonine-protein kinase RIM15 (Saccharomyces cerevisiae), P43565 (parent)
chain: B1 chain

Variants of: B1
Settings: with igo1_yeast IGO1, P53897

Row | Variant | effect of a mutation on the interaction
1 | K823Y;C1176Y | disrupting interaction

Variants of: B2
Settings: with msn2_yeast MSN2, P33748

Row | Variant | effect of a mutation on the interaction
2 | K823Y;C1176Y | disrupting interaction

Variants of: B3
Settings: with hsf_yeast HSF1, P10961
Sequence of hsf_yeast HSF1, P10961 (P10961 whole entry): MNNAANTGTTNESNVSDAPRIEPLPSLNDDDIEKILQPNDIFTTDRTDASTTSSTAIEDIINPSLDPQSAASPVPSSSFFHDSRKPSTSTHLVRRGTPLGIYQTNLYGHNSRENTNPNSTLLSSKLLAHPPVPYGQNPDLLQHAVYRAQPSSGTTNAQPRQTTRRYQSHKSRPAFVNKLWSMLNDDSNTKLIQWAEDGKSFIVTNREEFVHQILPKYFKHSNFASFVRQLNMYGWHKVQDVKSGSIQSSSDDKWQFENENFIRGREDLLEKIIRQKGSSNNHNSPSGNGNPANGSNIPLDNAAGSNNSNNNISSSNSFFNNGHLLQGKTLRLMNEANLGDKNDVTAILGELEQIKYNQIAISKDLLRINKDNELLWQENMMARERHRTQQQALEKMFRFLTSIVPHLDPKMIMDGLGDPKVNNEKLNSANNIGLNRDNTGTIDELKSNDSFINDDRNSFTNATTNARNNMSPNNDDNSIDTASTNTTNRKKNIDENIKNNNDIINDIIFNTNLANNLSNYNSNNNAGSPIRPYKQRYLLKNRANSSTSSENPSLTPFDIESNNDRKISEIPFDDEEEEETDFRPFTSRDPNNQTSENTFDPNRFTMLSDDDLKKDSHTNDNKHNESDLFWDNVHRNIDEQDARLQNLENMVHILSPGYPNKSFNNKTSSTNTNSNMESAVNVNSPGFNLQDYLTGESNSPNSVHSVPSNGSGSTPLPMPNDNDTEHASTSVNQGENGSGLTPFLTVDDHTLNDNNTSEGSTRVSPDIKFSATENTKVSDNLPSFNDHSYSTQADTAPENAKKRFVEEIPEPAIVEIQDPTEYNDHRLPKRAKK

Row | Variant | effect of a mutation on the interaction
3 | K823Y;C1176Y | disrupting interaction
